The assay deals with CR3 (Homo sapiens, UniProt P11215). The assay can be described thus: MST.

B1: Complement C3 (peptide)
chain: SSKITHRIHWESASLLR
In the case of B1, the Kd (in general, the equilibrium constant for the complex coming apart) was 5.73 nM.

(Values after paper PMC12374583 (2025).)
